# Test results as given in PMC10953399, “Escherichia coli DNA repair helicase Lhr is also a uracil‐DNA glycosylase”.
# T1: Lhr-CTD (Escherichia coli MG1655, UniProt P30015 876-1538)
# T1 sequence: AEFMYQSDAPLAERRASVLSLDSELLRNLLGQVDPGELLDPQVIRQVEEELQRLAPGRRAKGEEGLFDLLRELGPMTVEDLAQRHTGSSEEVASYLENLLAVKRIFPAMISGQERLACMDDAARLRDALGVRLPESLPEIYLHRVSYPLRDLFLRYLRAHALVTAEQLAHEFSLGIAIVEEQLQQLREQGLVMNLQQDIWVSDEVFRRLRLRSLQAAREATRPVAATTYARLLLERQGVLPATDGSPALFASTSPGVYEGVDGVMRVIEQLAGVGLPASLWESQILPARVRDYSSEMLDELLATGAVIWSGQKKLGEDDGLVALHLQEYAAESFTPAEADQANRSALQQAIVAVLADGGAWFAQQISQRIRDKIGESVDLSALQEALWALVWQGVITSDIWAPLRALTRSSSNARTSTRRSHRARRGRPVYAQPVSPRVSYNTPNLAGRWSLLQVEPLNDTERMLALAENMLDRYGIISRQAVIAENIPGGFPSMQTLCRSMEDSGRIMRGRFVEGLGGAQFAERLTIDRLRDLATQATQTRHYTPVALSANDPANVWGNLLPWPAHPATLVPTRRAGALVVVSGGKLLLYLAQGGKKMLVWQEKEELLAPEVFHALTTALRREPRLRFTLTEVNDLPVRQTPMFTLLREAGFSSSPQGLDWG
# B1: Cy5-ssDNA (EMSA) (ssDNA)
# DNA: TCGGATCCTCTAGACAGCTCCATGATCACTGGCACTGGTAGAATTCGGC
# Assays:
# Lhr = Lhr (Escherichia coli MG1655, UniProt P30015 1-1538); experiment: EMSA; 5 mM EDTA; 12.5-200 nM protein, 12.5 nM DNA; 20 mM Tris pH 7.5, 10% glycerol, 100 ug/mL BSA, 25 mM DTT, 5 mM EDTA, 12.5 nM Cy5-DNA; 37 C 20 min then ice 10 min; 5% acrylamide TBE gel; conditions: protein: recombinant; tags: His6; label: 5' Cy5; single strand
# Lhr-CTD = molecular target: T1, Lhr-CTD; experiment: EMSA; 5 mM EDTA; 12.5-200 nM protein, 12.5 nM DNA; no stable complex; 20 mM Tris pH 7.5, 10% glycerol, 100 ug/mL BSA, 25 mM DTT, 5 mM EDTA, 12.5 nM Cy5-DNA; 37 C 20 min then ice 10 min; 5% acrylamide TBE gel; conditions: protein: recombinant; tags: pNH-TrxT vector (GU269914.1); label: 5' Cy5; single strand
binder,measurement,setting,value
B1,binding result,Lhr,binds
same,binding result,Lhr-CTD,no binding
